According to patent publication US12679878B2, “CRF2 receptor agonists and their use in therapy” (SANOFI, priority 2020, dated 2026):
Starred links: 1 amine or outer side, 2 acyl side, 3 side chain; linkers in the order of their positions; H or OH if unused. Residues, ends and D or L forms follow the SMILES beside them. Groups on a side chain read outwards from the residue. No end group written: not given here. *: point of attachment. C18 diacid = O=C(O)CCCCCCCCCCCCCCCCC(=O)*; γGlu = O=C(O)[C@H](CCC(=O)[*:2])N[*:1]; Palmitoyl = CCCCCCCCCCCCCCCC(=O)*; AEEA = NCCOCCOCC(=O)O

T1: recombinant human CRF2 (HEK cell membranes) (human, UniProt Q13324 1-411)
T1 construct: Whole receptor in membranes prepared from HEK cells; also called CRF2a (h); CRF2 receptor
T1 sequence (looked up): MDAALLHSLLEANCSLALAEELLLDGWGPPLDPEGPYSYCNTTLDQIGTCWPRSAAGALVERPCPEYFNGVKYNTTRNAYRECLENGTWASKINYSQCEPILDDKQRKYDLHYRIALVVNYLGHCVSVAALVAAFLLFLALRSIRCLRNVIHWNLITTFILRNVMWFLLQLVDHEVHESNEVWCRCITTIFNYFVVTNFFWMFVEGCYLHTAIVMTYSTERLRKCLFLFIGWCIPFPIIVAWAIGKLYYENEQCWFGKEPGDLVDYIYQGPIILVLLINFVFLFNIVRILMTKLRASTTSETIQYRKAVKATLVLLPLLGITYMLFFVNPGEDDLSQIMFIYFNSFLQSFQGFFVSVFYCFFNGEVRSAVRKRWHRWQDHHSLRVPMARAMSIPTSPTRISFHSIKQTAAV

T2: anti-target CRF1R receptor (UniProt P34998 24-415, limits assumed)
T2 sequence (looked up): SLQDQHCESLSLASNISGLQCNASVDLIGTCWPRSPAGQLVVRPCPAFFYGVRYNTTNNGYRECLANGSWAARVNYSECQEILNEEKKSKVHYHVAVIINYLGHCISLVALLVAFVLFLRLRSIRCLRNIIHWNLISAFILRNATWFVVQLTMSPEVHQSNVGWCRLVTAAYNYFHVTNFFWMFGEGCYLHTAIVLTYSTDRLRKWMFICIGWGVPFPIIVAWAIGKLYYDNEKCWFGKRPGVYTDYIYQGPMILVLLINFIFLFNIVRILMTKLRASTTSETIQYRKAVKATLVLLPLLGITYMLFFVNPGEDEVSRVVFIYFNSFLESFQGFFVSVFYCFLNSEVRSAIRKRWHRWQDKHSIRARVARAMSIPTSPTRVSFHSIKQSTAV


How the values were obtained:
[1] = Effect on body mass, body fat content and food intake in high-fat diet fed (DIO) mice (Example 18); assay type: in vivo, C57BL/6N Crl mice
Method: The peptide of SEQ ID NO: 35 was assessed for its ability to reduce body mass and body fat content in mice. Its efficacy was compared with that of a reference compound, namely the compound of Example 4 of WO2018013803 (Alsina-Fernandez; Eli Lilly and Company), referred to herein as “Compound A”.
Female C57BL/6N Crl mice were group housed under vivarium conditions that included a 12 h light/dark cycle and a room temperature of 23±1° C. All animals had free access to water and diet (Ssniff adjusted high fat diet: TD.97366, Soest, Germany) for 18 weeks prior to pharmacological intervention (dosing phase). After the pre-feeding period, mice were single housed and randomized according to body weight to treatment groups with n=8, so that each group has similar mean body weight. At the start of the study, mice were between 25-26 weeks old with body weight of 42-50 g. Mice were treated every second day during late afternoon hours prior lights off with a subcutaneous injection of 8 nmol/kg of the test compounds or their vehicle (phosphate-buffered saline (PBS). Body weight and food intake were measured daily throughout the dosing phase while body fat content was measured at day 0 prior to the start of treatment and at day 15. The study was terminated on day 15.
For statistical analyses a One-Way Analysis of Variance (ANOVA) was performed with SigmaStat 3.5. The test was performed with a risk alpha of 0.050 and a comparison versus the high fat diet-Vehicle group was performed with Dunnett's tests.

[2] = Effect on blood pressure, telemetry (Example 17); assay type: in vivo; conditions: Sprague Dawley rats, 0.1 mg/kg SC
How it was run: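 Sprague Dawley rats with an aortic-catheter telemetry implant, recovered at least 2 weeks, given compound or vehicle at 0.1 mg/kg SC. HR, SBP, DBP and MBP recorded continuously for 48 h. Each 4-hour post-dose mean was compared with a 1-hour pre-dose basal mean.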

[3] = molecular target: T1, recombinant human CRF2 (HEK cell …); experiment: radioligand competition against [125]sauvagine (0.1 nM), HEK membranes with recombinant human CRF2; Cheng Prusoff
Method: (§1) HEK cells expressing recombinant human CRF2 were used as a source of receptor for membrane preparation.
(§2) IC50 values (concentration causing a half-maximal inhibition of control specific binding) and Hill coefficients (nH) were determined by non-linear regression analysis of the competition curves generated with mean replicate values using Hill equation curve fitting. The inhibition constants (Ki) were calculated using the Cheng Prusoff equation [Ki=IC50/(1+L/KD) where L is the concentration of radioligand in the assay, and KD is the affinity of the radioligand for the receptor). A Scatchard plot was used to determine the KD.

[4] = molecular target: T1, recombinant human CRF2 (HEK cell …); experiment: Hill coefficient of the competition curve against [125]sauvagine, HEK membranes with recombinant human CRF2
Method: as §1, §2

rat CRF2R α receptor = rat CRF2R α receptor (rat, UniProt P47866 20-411); experiment: cell-based or functional assay
[5] = molecular target: T2, anti-target CRF1R receptor; experiment: cell-based or functional assay

Row | Molecule | cumulative food intake over 15 days ([1]; 8 nmol/kg s.c. every second day) [g] | lean mass change ([1]; 8 nmol/kg s.c. every second day, 15 days) [%] | relative body weight change ([1]; 8 nmol/kg s.c. every second day, 15 days, mean±SEM) [%] | reduction in body fat content ([1]; 8 nmol/kg s.c. every second day, day 15 vs day 0) [%] | food intake after first administration ([1]; 8 nmol/kg s.c., normalized after second treatment (FIG. 1)) | Duration (h): last time point for which a significant effect on BP was still seen [2] [h] | Effect on Systolic Pressure % change from baseline 8 h ([2]; 8 h) [%] | Effect on Systolic Pressure % change from baseline 24 h ([2]; 24 h) [%] | Ki [3] [nM] | nH [4] | EC50 [nM], 0% HSA (cAMP, A7R5 cells) (rat CRF2R α receptor) [nM] | EC50[nM] 0% HSA (cAMP, CRF1R-overexpression CHO cells) [5] [nM] | Emax (%) (cAMP, CRF1R-overexpression CHO cells) [5]
1 | CC[C@H](C)[C@H](N)C(=O)N[C@H](C(=O)N[C@@H](CC(C)C)C(=O)N[C@@H](CO)C(=O)N[C@@H](CC(C)C)C(=O)N[C@@H](CC(=O)O)C(=O)N[C@H](C(=O)N1CCC[C@H]1C(=O)N[C@H](C(=O)N[C@@H](CCCCN)C(=O)N[C@@H](CC(C)C)C(=O)N[C@@H](CCCCNC(=O)COCCOCCNC(=O)COCCOCCNC(=O)CC[C@H](NC(=O)CCCCCCCCCCCCCCCCC(=O)O)C(=O)O)C(=O)N[C@@H](CCCCN)C(=O)N[C@H](C(=O)N[C@@H](CC(C)C)C(=O)N[C@@H](CC(C)C)C(=O)N[C@@H](CCC(=O)O)C(=O)N[C@@H](CCC(N)=O)C(=O)N[C@@H](CCC(=O)O)C(=O)N[C@@H](CCCCN)C(=O)N[C@@H](CCC(N)=O)C(=O)N[C@@H](CCCCN)C(=O)N[C@@H](CCCCN)C(=O)N[C@@H](CCC(N)=O)C(=O)N[C@@H](CCCNC(=N)N)C(=O)N[C@@H](CCC(=O)O)C(=O)N[C@@H](CCC(N)=O)C(=O)N[C@@H](C)C(=O)N[C@@H](CCC(=O)O)C(=O)N[C@H](C(=O)N[C@@H](CC(N)=O)C(=O)N[C@@H](CCCCN)C(=O)N[C@@H](CCC(N)=O)C(=O)N[C@H](C(=O)N[C@@H](CC(C)C)C(=O)N[C@@H](C)C(=O)N[C@@H](CCC(N)=O)C(=O)N[C@H](C(N)=O)C(C)C)[C@@H](C)CC)[C@@H](C)O)[C@@H](C)CC)[C@@H](C)CC)C(C)C)C(C)C [SEQ ID NO: 35] (H-IVLSLDVPIKLK([AEEA-AEEA-γGlu-C18 diacid])KILLEQEKQKKQREQAETNKQILAQV-NH2) | 39.3 ± 2.5 | −6.3±1.7 | −10.8±1.4 | −34.2±2.9 | meaningful reduction of food intake | 30 | −14.1 | −5.0 |  |  |  |  | 
2 | IVLSLDVPIKLK([γGlu-Palmitoyl])KILLEQEKQKKQREQAETNKQILAQV-NH2 (N-terminus assumed; SMILES CCCCCCCCCCCCCCCC(=O)N[C@@H](CCC(=O)NCCCC[C@H](NC(=O)[C@H](CC(C)C)NC(=O)[C@H](CCCCN)NC(=O)[C@@H](NC(=O)[C@@H]1CCCN1C(=O)[C@@H](NC(=O)[C@H](CC(=O)O)NC(=O)[C@H](CC(C)C)NC(=O)[C@H](CO)NC(=O)[C@H](CC(C)C)NC(=O)[C@@H](NC(=O)[C@@H](N)[C@@H](C)CC)C(C)C)C(C)C)[C@@H](C)CC)C(=O)N[C@@H](CCCCN)C(=O)N[C@H](C(=O)N[C@@H](CC(C)C)C(=O)N[C@@H](CC(C)C)C(=O)N[C@@H](CCC(=O)O)C(=O)N[C@@H](CCC(N)=O)C(=O)N[C@@H](CCC(=O)O)C(=O)N[C@@H](CCCCN)C(=O)N[C@@H](CCC(N)=O)C(=O)N[C@@H](CCCCN)C(=O)N[C@@H](CCCCN)C(=O)N[C@@H](CCC(N)=O)C(=O)N[C@@H](CCCNC(=N)N)C(=O)N[C@@H](CCC(=O)O)C(=O)N[C@@H](CCC(N)=O)C(=O)N[C@@H](C)C(=O)N[C@@H](CCC(=O)O)C(=O)N[C@H](C(=O)N[C@@H](CC(N)=O)C(=O)N[C@@H](CCCCN)C(=O)N[C@@H](CCC(N)=O)C(=O)N[C@H](C(=O)N[C@@H](CC(C)C)C(=O)N[C@@H](C)C(=O)N[C@@H](CCC(N)=O)C(=O)N[C@H](C(N)=O)C(C)C)[C@@H](C)CC)[C@@H](C)O)[C@@H](C)CC)C(=O)O) [peptide of SEQ ID NO: 17] |  |  |  |  |  |  |  |  | 4.4 | 1.5 |  |  | 
3 | IVLSLDVPIKLK([AEEA-AEEA-γGlu-C18 diacid])QILLEQERQKKQREQAETNKQILAQV-NH2 (N-terminus assumed; SMILES CC[C@H](C)[C@H](N)C(=O)N[C@H](C(=O)N[C@@H](CC(C)C)C(=O)N[C@@H](CO)C(=O)N[C@@H](CC(C)C)C(=O)N[C@@H](CC(=O)O)C(=O)N[C@H](C(=O)N1CCC[C@H]1C(=O)N[C@H](C(=O)N[C@@H](CCCCN)C(=O)N[C@@H](CC(C)C)C(=O)N[C@@H](CCCCNC(=O)COCCOCCNC(=O)COCCOCCNC(=O)CC[C@H](NC(=O)CCCCCCCCCCCCCCCCC(=O)O)C(=O)O)C(=O)N[C@@H](CCC(N)=O)C(=O)N[C@H](C(=O)N[C@@H](CC(C)C)C(=O)N[C@@H](CC(C)C)C(=O)N[C@@H](CCC(=O)O)C(=O)N[C@@H](CCC(N)=O)C(=O)N[C@@H](CCC(=O)O)C(=O)N[C@@H](CCCNC(=N)N)C(=O)N[C@@H](CCC(N)=O)C(=O)N[C@@H](CCCCN)C(=O)N[C@@H](CCCCN)C(=O)N[C@@H](CCC(N)=O)C(=O)N[C@@H](CCCNC(=N)N)C(=O)N[C@@H](CCC(=O)O)C(=O)N[C@@H](CCC(N)=O)C(=O)N[C@@H](C)C(=O)N[C@@H](CCC(=O)O)C(=O)N[C@H](C(=O)N[C@@H](CC(N)=O)C(=O)N[C@@H](CCCCN)C(=O)N[C@@H](CCC(N)=O)C(=O)N[C@H](C(=O)N[C@@H](CC(C)C)C(=O)N[C@@H](C)C(=O)N[C@@H](CCC(N)=O)C(=O)N[C@H](C(N)=O)C(C)C)[C@@H](C)CC)[C@@H](C)O)[C@@H](C)CC)[C@@H](C)CC)C(C)C)C(C)C) [peptide of SEQ ID NO: 68] |  |  |  |  |  |  |  |  | 5.4 | 0.8 | 1.74 | > 1000 | 12.3
4 | FTLSLDVPTKIK([AEEA-AEEA-γGlu-C18 diacid])QILLKQQKQKKERQQAEKNKQLLEQI-NH2 (N-terminus assumed; SMILES CC[C@H](C)[C@H](NC(=O)[C@H](CCC(N)=O)NC(=O)[C@H](CCC(=O)O)NC(=O)[C@H](CC(C)C)NC(=O)[C@H](CC(C)C)NC(=O)[C@H](CCC(N)=O)NC(=O)[C@H](CCCCN)NC(=O)[C@H](CC(N)=O)NC(=O)[C@H](CCCCN)NC(=O)[C@H](CCC(=O)O)NC(=O)[C@H](C)NC(=O)[C@H](CCC(N)=O)NC(=O)[C@H](CCC(N)=O)NC(=O)[C@H](CCCNC(=N)N)NC(=O)[C@H](CCC(=O)O)NC(=O)[C@H](CCCCN)NC(=O)[C@H](CCCCN)NC(=O)[C@H](CCC(N)=O)NC(=O)[C@H](CCCCN)NC(=O)[C@H](CCC(N)=O)NC(=O)[C@H](CCC(N)=O)NC(=O)[C@H](CCCCN)NC(=O)[C@H](CC(C)C)NC(=O)[C@H](CC(C)C)NC(=O)[C@@H](NC(=O)[C@H](CCC(N)=O)NC(=O)[C@H](CCCCNC(=O)COCCOCCNC(=O)COCCOCCNC(=O)CC[C@H](NC(=O)CCCCCCCCCCCCCCCCC(=O)O)C(=O)O)NC(=O)[C@@H](NC(=O)[C@H](CCCCN)NC(=O)[C@@H](NC(=O)[C@@H]1CCCN1C(=O)[C@@H](NC(=O)[C@H](CC(=O)O)NC(=O)[C@H](CC(C)C)NC(=O)[C@H](CO)NC(=O)[C@H](CC(C)C)NC(=O)[C@@H](NC(=O)[C@@H](N)Cc1ccccc1)[C@@H](C)O)C(C)C)[C@@H](C)O)[C@@H](C)CC)[C@@H](C)CC)C(N)=O) [peptide of SEQ ID NO: 51] |  |  |  |  |  |  |  |  |  | 0.8 | 0.87 | > 1000 | 3.38
